Assay [1] addresses recombinant cynomolgus monkey BCMA-huFc (cynomolgus monkey; human). Nature of the assay: ELISA, hybridoma supernatant, dilution, immobilized cynoBCMA-huFc.
The target is the same in assay [2]. In words: ELISA, hybridoma supernatant, dilution 1:729, immobilized cynoBCMA-huFc. (ELISA stands for enzyme-linked immunosorbent assay.)
For assay [3] the target is unchanged. Nature of the assay: ELISA, hybridoma supernatant, dilution 1:27, immobilized cynoBCMA-huFc.
The target is the same in assay [4]. In words: ELISA, hybridoma supernatant, dilution 1:81, immobilized cynoBCMA-huFc.
Assay [5] has the same target. Nature of the assay: ELISA, hybridoma supernatant, dilution 1:2187, immobilized cynoBCMA-huFc.
For assay [6] the target is unchanged. In words: ELISA, hybridoma supernatant, dilution 1:243, immobilized cynoBCMA-huFc.
The target is the same in assay [7]. Nature of the assay: ELISA, hybridoma supernatant, stock solution, immobilized cynoBCMA-huFc.
Assay [8] has the same target. Nature of the assay: ELISA, hybridoma supernatant, dilution 1:9, immobilized cynoBCMA-huFc.

Chain of recombinant cynomolgus monkey BCMA-huFc (cynomolgus monkey; human) (chain, as listed by the source limits assumed): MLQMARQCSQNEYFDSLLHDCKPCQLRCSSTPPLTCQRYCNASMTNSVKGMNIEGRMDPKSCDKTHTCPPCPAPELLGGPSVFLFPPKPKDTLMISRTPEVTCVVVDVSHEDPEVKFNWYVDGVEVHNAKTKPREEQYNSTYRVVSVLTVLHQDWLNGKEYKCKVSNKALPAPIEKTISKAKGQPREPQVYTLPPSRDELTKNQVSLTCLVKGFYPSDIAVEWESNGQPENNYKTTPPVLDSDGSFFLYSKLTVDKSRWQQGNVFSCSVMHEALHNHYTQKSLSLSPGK

B1: mouse monoclonal antibody 202E11H10E3 (antibody, V domains shown)
VH: QVQLQQSDAELVKPGTSVKISCKVSGYTFTDHTIHWMKQRPEQGLEWIGYIYPRNGNTKYNEKFKGKATLTADKSSSTAYMHLNSLTSEDSAVYFCARYDYDGYFDVWGTGTTVTVSS
VL: DVVMTQTPLSLPVSLGDQASISCRSSQSHVHSDGHTYLHWYLQKPGQSPELLIYKVSNRFSGVPDRFSGSGSGTDFTLKISRVEAEDLGVYFCSQNTHFPWTFGGGTKLEIK
In the case of B1, the ELISA result in assay [1] came out at 0.31; in assay [2], 0.13; in assay [3], 0.15; in assay [4], 0.14; in assay [5], 0.12; in assay [6], 0.15. Also, the ELISA result in assay [7] amounted to 0.75; in assay [8], 0.18.

These data come from patent US20240117061A1.
